This note sets out measurements from ChEMBL document CHEMBL3576833, “Design and Synthesis of Acetylenyl Benzamide Derivatives as Novel Glucokinase Activators for the Treatment of T2DM” (ACS Med Chem Lett, 2015).

Compound in this series: COC[C@H](C)Oc1cc(C#Cc2cccc(N)c2)cc(C(=O)Nc2ccn(C)n2)c1
The series is described as follows: Activation of recombinant human pancreatic glucokinase using 10 mM glucose as substrate assessed as enzyme Vmax by G6PDH coupled assay.

B1: Hexokinase-4 (Homo sapiens), P35557 (protein)
chain: MLDDRARMEAAKKEKVEQILAEFQLQEEDLKKVMRRMQKEMDRGLRLETHEEASVKMLPTYVRSTPEGSEVGDFLSLDLGGTNFRVMLVKVGEGEEGQWSVKTKHQMYSIPEDAMTGTAEMLFDYISECISDFLDKHQMKHKKLPLGFTFSFPVRHEDIDKGILLNWTKGFKASGAEGNNVVGLLRDAIKRRGDFEMDVVAMVNDTVATMISCYYEDHQCEVGMIVGTGCNACYMEEMQNVELVEGDEGRMCVNTEWGAFGDSGELDEFLLEYDRLVDESSANPGQQLYEKLIGGKYMGELVRLVLLRLVDENLLFHGEASEQLRTRGAFETRFVSQVESDTGDRKQIYNILSTLGLRPSTTDCDIVRRACESVSTRAAHMCSAGLAGVINRMRESRSEDVMRITVGVDGSVYKLHPSFKERFHASVRRLTPSCEITFIESEEGSGRGAALVSAVACKKACMLGQ
Turning to B1, the Vmax was 126%.
